The values below come from paper PMC314469, “Protein Interaction Networks by Proteome Peptide Scanning” (PLoS Biology, 2004).

The labels stand for the following.
T1: amphyphisin SH3 (AMPH_HUMAN), P49418
T1 chain: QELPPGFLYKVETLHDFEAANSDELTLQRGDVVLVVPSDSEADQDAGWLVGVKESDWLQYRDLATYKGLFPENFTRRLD

B1: Q08493 32-45 (peptide)
chain: LWRQPRRPIRIQQR
B2: P08700 68-81 (peptide)
chain: MENNLRRPNLEAFN
B3: Q99743 799-812 (peptide)
chain: AQPQPLRPPRRVSS
B4: Q9BZJ7 289-302 (peptide)
chain: LYGLLQRPVRLALG
B5: Q9NW15 466-479 (peptide)
chain: MSRVFKRPFSEPSA
B6: Q13972 262-275 (peptide)
chain: LVNNFLRPLRMAAS
B7: Q9UK56 265-278 (peptide)
chain: LVNGFLRPLRMAAS
B8: Q96DN1 10-23 (peptide)
chain: LYWLLRRPSGVVLS
B9: Q14934 712-726 (peptide)
chain: MDFSPPRPPYPSYP
B10: Q9GZZ2 864-877 (peptide)
chain: MKVHIKRPEMTSSS
B11: Q96Q82 70-83 (peptide)
chain: LVSRLRRPVSEVSG
B12: Q13573 443-456 (peptide)
chain: MAQSIYRPSKNLDK
B13: Q13808 54-67 (peptide)
chain: MLAMPRRPDPVFLN
B14: Q96HR8 430-444 (peptide)
chain: MHNFPLRPPPPPPP
B15: Q9NS62 435-448 (peptide)
chain: LWRRFGRPAKSSTP
B16: Q9NU18 93-107 (peptide)
chain: LYRFPGKPPTYVTD
B17: O00445 360-373 (peptide)
chain: MLANPRRPIAQWHS
B18: Q9P0N2 51-64 (peptide)
chain: MDGFLSRPSRPLLQ
B19: O15450 763-776 (peptide)
chain: APVPLLRPHRPSGP
B20: Q9NXU2 68-81 (peptide)
chain: AQARLKRPLKSLDG
B21: Q14209 197-210 (peptide)
chain: MFEDPTRPGKQQQL
B22: Q96EY9 124-138 (peptide)
chain: LVPVPARPPLTRGQ
B23: Q9H455 29-42 (peptide)
chain: LYRGLSRPIRRTTQ
B24: Q9H4M9 114-127 (peptide)
chain: LVVDPRRPFRKLNA
B25: Q08050 1-14 (peptide)
chain: MKTSPRRPLILKRR
B26: Q13635 1311-1324 (peptide)
chain: LWPPLYRPRRDAFE
B27: P20849 777-790 (peptide)
chain: MAASLKRPDSGATG
B28: Q96M26 524-538 (peptide)
chain: MEHSPQRPPRTEPT
B29: Q8WUS6 527-541 (peptide)
chain: MAGLPFRPPWGSLS
B30: Q9Y2E4 57-70 (peptide)
chain: LVNTLKRPKRPPLR
B31: O94901 782-795 (peptide)
chain: MFQALKRPDDTAFQ
B32: P11230 356-369 (peptide)
chain: LYLRLKRPKPERDL
B33: Q9Y6E0 364-377 (peptide)
chain: MKDIPKRPFSQSLS
B34: Q9Y2K2 611-624 (peptide)
chain: AQQLLKRPRGPSPL
B35: Q9Y2W3 70-83 (peptide)
chain: LVSIPERPLRPPSE
B36: Q9UPS6 353-366 (peptide)
chain: MKRKPGRPRRSPPS
B37: Q02246 907-921 (peptide)
chain: MKPPPRRPPGNISW
B38: Q9Y4E6 583-597 (peptide)
chain: MKKGPTRPPRPSTP

One assay addresses T1, amphyphisin SH3 (AMPH_HUMAN), P49418. Briefly: SPOT array.
B1 had a normalised SPOT signal, Boehringer light units (BLU); mean over the file's lines of this peptide of 3170.
On the same count and under the same terms, then B2, with 27.1; and B3, with 25300; and B4, with 1270.
Still for that read-out and setting: then B5, with 88.8; and B6, with 12100; and B7, with 4910.
On the same count and under the same terms, the value for B8 was 180; that for B9 was 18; that for B10 was 27.3.
Molecule B11 yielded a normalised SPOT signal, Boehringer light units (BLU); mean over the file's lines of this peptide of 112.
Turning to B12, the normalised SPOT signal, Boehringer light units (BLU); mean over the file's lines of this peptide is 153.
Same read-out and setting: then B13, with 57.7; and B14, with 68.7.
Turning to B15, the normalised SPOT signal, Boehringer light units (BLU); mean over the file's lines of this peptide is 105.
Same read-out and setting: the value for B16 was 39.
Take B17: the normalised SPOT signal, Boehringer light units (BLU); mean over the file's lines of this peptide amounted to 33.7.
The same measure, in the same setting: the value for B18 was 295.
Still for that read-out and setting: then B19, with 1350.
On to B20, for which the normalised SPOT signal, Boehringer light units (BLU); mean over the file's lines of this peptide worked out at 117.
As for B21, the normalised SPOT signal, Boehringer light units (BLU); mean over the file's lines of this peptide stood at 18.6.
In turn, B22 came in with a normalised SPOT signal, Boehringer light units (BLU); mean over the file's lines of this peptide of 2950.
In the case of B23, the normalised SPOT signal, Boehringer light units (BLU); mean over the file's lines of this peptide amounted to 789.
On the same count and under the same terms, the value for B24 was 2940; that for B25 was 150; that for B26 was 1260.
Still for that read-out and setting: the value for B27 was 27.1; that for B28 was 14500; that for B29 was 73.
B30: the normalised SPOT signal, Boehringer light units (BLU); mean over the file's lines of this peptide turned out to be 408.
Same read-out and setting: the value for B31 was 38.2; that for B32 was 42.9; that for B33 was 99.5.
The same measure, in the same setting: then B34, with 55.3.
Still for that read-out and setting: then B35, with 3540; and B36, with 138; and B37, with 1010.
As for B38, the normalised SPOT signal, Boehringer light units (BLU); mean over the file's lines of this peptide was 10700.

The target in another assay is endophilin SH3 (SH3G2_HUMAN), Q99962. Kind of assay: SPOT array.
On to B1, for which the normalised SPOT signal, Boehringer light units (BLU); mean over the file's lines of this peptide is 1000.
The molecule B2 returned a normalised SPOT signal, Boehringer light units (BLU); mean over the file's lines of this peptide of 14.8.
Still for that read-out and setting: then B3, with 1160; and B4, with 1110.
Still for that read-out and setting: the value for B5 was 627; that for B6 was 1250; that for B7 was 176.
Same read-out and setting: then B8, with 158; and B9, with 978.
The molecule B10 displayed a normalised SPOT signal, Boehringer light units (BLU); mean over the file's lines of this peptide of 163.
On the same count and under the same terms, the value for B11 was 96.8; that for B12 was 185.
Same read-out and setting: the value for B13 was 214.
As for B14, the normalised SPOT signal, Boehringer light units (BLU); mean over the file's lines of this peptide was determined as 213.
Still for that read-out and setting: the value for B15 was 114; that for B16 was 157.
Same read-out and setting: the value for B17 was 551; that for B18 was 236.
Same read-out and setting: then B19, with 704; and B20, with 109; and B21, with 120.
In the case of B22, the normalised SPOT signal, Boehringer light units (BLU); mean over the file's lines of this peptide worked out at 3430.
The same measure, in the same setting: the value for B23 was 234; that for B24 was 179; that for B25 was 2850.
On the same count and under the same terms, then B26, with 3920.
For the molecule B27, the normalised SPOT signal, Boehringer light units (BLU); mean over the file's lines of this peptide was found to be 34.5.
As to B28, the normalised SPOT signal, Boehringer light units (BLU); mean over the file's lines of this peptide is 1100.
Same read-out and setting: then B29, with 4340; and B30, with 48; and B31, with 54.5.
Still for that read-out and setting: the value for B32 was 70.6.
Still for that read-out and setting: the value for B33 was 2820; that for B34 was 75.7.
As to B35, the normalised SPOT signal, Boehringer light units (BLU); mean over the file's lines of this peptide was 310.
The same measure, in the same setting: then B36, with 989.
On the same count and under the same terms, then B37, with 1910; and B38, with 17300.
